For assay [1], the system named is immunocomplex of CCPH variant and biotinylated anti-Adda mAb. Briefly: Quantitative lateral flow test with streptavidin up-converting nanoparticles. It is filed as binding. Particulars: for Recognition of nine CCPH variants in lateral flow test: each CCPH at 1 μg/l.
Assay [2] shares this test system. Briefly: Single-step non-competitive TR-IFMA with SA51D1 scFv-AP, toxin standards. It is filed as binding.
Assay [3] deals with anti-Adda mAb-MC-LR immunocomplex. It is filed as binding.
Assay [4] relates to biotinylated anti-Adda Mab, no CCPH. The assay can be described thus: TR-IFMA background signal without CCPH. It is filed as binding. As to the method:
(§1) By way of example, the specificity of SA51D1 to the immune complex was also seen in our immunoassay, where streptavidin-coated 96-well microtiter wells were used to capture a complex formed by biotinylated anti-Adda Mab, CCPH, SA51D1 antibody fused to alkaline phosphatase and this complex was detected with europium-labelled anti-alkaline phosphatase Pab. […] With 10 μg/l level of MC-LR the fluorescence signal was 789966 counts.

In assay [5] the test system is complex of biotinylated anti-Adda Mab and MC-LR. Briefly: TR-IFMA signal with MC-LR. Format: binding. Particulars: 10 μg/l MC-LR. As to the method:
as §1

For assay [6], the system named is anti-Adda mAb without MC-LR. The assay can be described thus: BioLayer Interferometry (Octet), binding to naked primary antibody. Particulars: SA51D1 1 μg/ml; no MC-LR. As to the method:
(§2) Binding of SA51D1 was explored using Octet RED384 instrument (Pall ForteBio). Three measurements (A, B and C) were performed in duplicates using tilted-bottom 384-well microplates (ForteBio) with 1000 rpm agitation at 30° C. Colorless Assay Buffer (Kaivogen) [0.05 M Tris-HCl, pH 7.75, 0.9% (w/v) NaCl, 0.05% (w/v) NaN3, 0.01% (v/v) Tween 40, 0.05% (w/v) bovine-γ-globulin, 20 μM diethylenetriaminepentaacetate (DTPA), and 0.5% (w/v) bovine serum albumin (BSA)] was used.
(§3) Biotinylated ADDA Mab AD4G2 (1 μg/ml) was immobilized on Streptavidin biosensor (Dip and Read SA Biosensors, ForteBio) for 200 sec. In order to form IC, another loading was performed with MC-LR (1 μg/ml) for 200 sec. In blank measurement (C) only buffer was used instead of MC-LR. All sensors were incubated in buffer for 60 sec.
Background: BLI is a label-free optical method that tracks binding on a fibre tip over time.

Assay [7] concerns immunocomplexes of CCPH variants and anti-Adda mAb. Briefly: Screening and cross-reactivity studies of anti-IC scFv-AP binders, specificity class. It is filed as binding.
The subject of assay [8] is immunocomplex formed by anti-Adda Mab and MC-LR. The assay can be described thus: BioLayer Interferometry (Octet), binding to immunocomplex. Particulars: SA51D1 1 μg/ml. As to the method: as §2, §3
A short description of assay [9]: BioLayer Interferometry (Octet), pre-incubation with free toxin. It is filed as binding. Particulars: pre-incubated with 500 μg/L MC-LR. As to the method: as §2, §3
Assay [10] concerns CCPH in unknown water samples, immunocomplex with anti-Adda mAb. Briefly: Anti-IC immunoassay profiling of blinded water samples (Abraxis proficiency testing). Format: binding. Particulars: sample MC-TK8, MC-LR + MC-RR + MC-YR, 4 + 1 + 1 μg/l.
In assay [11] the test system is immunocomplexes of MC-XZ and Nod-R with anti-Adda mAb. Briefly: Cross-reactivity profile of anti-IC binders by single-step non-competitive assay (FIG. 5). Format: binding. Particulars: toxin 0.1 to 60 μg/L.

Experimental findings from US10808024B2, “Antibodies against immunocomplexes comprising cyanobacterial cyclic peptide hepatotoxins” (priority 2015, dated 2020) are described below.

Entries after “also recorded” stand apart in the source; their conditions may differ.

For `C/C=C1/C(=O)N[C@@H](C(=O)O)[C@H](C)C(=O)N[C@@H](CCCNC(=N)N)C(=O)N[C@@H](/C=C/C(C)=C/[C@H](C)[C@H](Cc2ccccc2)OC)[C@H](C)C(=O)N[C@@H](C(=O)O)CCC(=O)N1C` [Nodularin, reference compound], the Signal-to-background ratio in [1] was found to be 38.
MC-LA had a Sensitivity in [2] of 0.05 µg/L.
For the molecule MC-LR, the “Sensitivity (blank+3SD)” value in assay [3] is “below 0.3 μg/L”.

B1: SA51D1: group-specific (generic) anti-immunocomplex scFv from synthetic phage display library (antibody, V domains shown)
VH: EVQLLESGGGLVQPGGSLRLSCAASGFTFSNYSMHWVRQAPGKGLEWVSEITPYDGNTDYADSVKGRFTISRDNSKNTLYLQMNSLRAEDTAVYYCAREWWSSNWIYLDYWGQGTLVTVSS
VL: EIVLTQSPGTLSLSPGERATLSCRASQSVSSSNLAWYQQKPGQAPRLLIYGASSRATGVPDRFSGSGSGTDFTLTISRLEPEDFAVYYCQQMHSTPWTFGQGTKVEIKRT
modifications: Clone SA51D1; DOMAIN (31)..(35) CDR1; DOMAIN (50)..(66) CDR2; DOMAIN (99)..(110) CDR3; DOMAIN (24)..(35) CDR1; DOMAIN (51)..(57) CDR2; DOMAIN (90)..(98) CDR3
On to B1, for which, in [4], the “Background fluorescence signal level” value was found to be 404 counts. The molecule further yielded a Fluorescence signal in assay [5] of 789966 counts. Moreover, the “Binding to anti-Adda mAb alone” value in [6] is “no interaction; also recorded: neglegtable binding”. Moreover, the “Recognition of nine CCPH variants in lateral flow test” value in assay [1] is reported as “recognizes all CCPH variants tested”. For the same molecule, in assay [7], the “Specificity of anti-IC antibody (CCPH immunocomplexes recognized)” value (from here on “Specificity of anti-IC antibody”) is listed as “group-specific; also recorded: broad-specific”. Moreover, the Binding to immunocomplex result in assay [8] is “binds specifically”. In assay [9], the “Affinity towards free MC-LR” value is “does not have affinity; also recorded: no affinity”.

B2: SA41B5: variant-specific anti-IC antibody, MC-RR (antibody, V domains shown)
VH: EVQLLESGGGLVQPGGSLRLSCAASGFTFSSDVMHWVRQAPGKGLEWVSVINPYDGSTYYADSVKGRFTISRDNSKNTLYLQMNSLRAEDTAVYYCARAVAGQGGYFDYWGQGTLVTVSS
VL: EIVLTQSPGTLSLSPGERATLSCRASQSVSSSNLAWYQQKPGQAPRLLIYGASSRATGVPDRFSGSGSGTDFTLTISRLEPEDFAVYYCQQSSSLPWTFGQGTKVEIKRT
modifications: Clone SA41B5; DOMAIN (31)..(35) CDR1; DOMAIN (50)..(66) CDR2; DOMAIN (99)..(109) CDR3; DOMAIN (24)..(35) CDR1; DOMAIN (51)..(57) CDR2; DOMAIN (90)..(98) CDR3
As to B2, the “Specific anti-IC assay result” value in assay [10] was “positive”. In assay [7], the “Specificity of anti-IC antibody” value is given as “recognize immunocomplexes comprising MC-RR; also recorded: MC-RR specific”.

B3: SA57D4: subgroup-specific anti-IC antibody (antibody, V domains shown)
VH: EVQLLESGGGLVQPGGSLRLSCAASGFTFSGYGMHWVRQAPGKGLEWVSAISDLNGSTYYADSVKGRFTISRDNSKNTLYLQMNSLRAEDTAVYYCARNGWGDMDLWGQGTLVTVSS
VL: EIVLTQSPGTLSLSPGERATLSCRASQSVSSSALAWYQQKPGQAPRLLIYGASSRATGVPDRFSGSGSGTDFTLTISRLEPEDFAVYYCQQSYSLPWTFGQGTKVEIKRT
modifications: Clone SA57D4; DOMAIN (31)..(35) CDR1; DOMAIN (50)..(66) CDR2; DOMAIN (99)..(106) CDR3; DOMAIN (24)..(35) CDR1; DOMAIN (51)..(57) CDR2; DOMAIN (90)..(98) CDR3
With B3, in assay [7], the “Specificity of anti-IC antibody” value is recorded as “subgroup-specific”.

B4: SA56B8: variant-specific anti-IC antibody, MC-LR (antibody, V domains shown)
VH: EVQLLESGGGLVQPGGSLRLSCAASGFTFSDYWMHWVRQAPGKGLEWVSYINPYGGYTDYADSVKGRFTISRDNSKNTLYLQMNSLRAEDTAVYYCARYVRRHFDYWGQGTLVTVSS
VL: EIVLTQSPGTLSLSPGERATLSCRASQSVSSSYLAWYQQKPGQAPRLLIYGASSRATGVPDRFSGSGSGTDFTLTISRLEPEDFAVYYCQQSSSYPWTFGQGTKVEIKRT
modifications: Clone SA56B8; DOMAIN (31)..(35) CDR1; DOMAIN (50)..(66) CDR2; DOMAIN (99)..(106) CDR3; DOMAIN (24)..(35) CDR1; DOMAIN (51)..(57) CDR2; DOMAIN (90)..(98) CDR3
Regarding B4, the “Signal (%) with MC-LW” value in [11] (MC-LW) is “below 20%”. Moreover, the “Specificity (cross-reactive pattern)” value in [11] is “MC-LR and MC-dmLR specific”. Moreover, the “Specificity of anti-IC antibody” value in assay [7] is reported as “recognize immunocomplexes comprising MC-LR; also recorded: MC-LR specific”.

B5: SA32C11: variant-specific anti-IC antibody, Nod-R (antibody, V domains shown)
VH: EVQLLESGGGLVQPGGSLRLSCAASGFTFSDYWMHWVRQAPGKGLEWVSEINTSNGNTYYADSVKGRFTISRDNSKNTLYLQMNSLRAEDTAVYYCARESWWPYSFDYWGQGTLVTVSS
VL: EIVLTQSPGTLSLSPGERATLSCRASQSVSSSNLAWYQQKPGQAPRLLIYGASSRATGVPDRFSGSGSGTDFTLTISRLEPEDFAVYYCQQSSSLPWTFGQGTKVEIKRT
modifications: Clone SA32C11; DOMAIN (31)..(35) CDR1; DOMAIN (50)..(66) CDR2; DOMAIN (99)..(108) CDR3; DOMAIN (24)..(35) CDR1; DOMAIN (51)..(57) CDR2; DOMAIN (90)..(98) CDR3
Take B5: the “Recognition of nine CCPH variants in lateral flow test” value in [1] was “Only Nodularin was recognized”. Besides, the “Specificity (cross-reactive pattern)” value in assay [11] is on record as “specificity only towards Nod-R”. The “Specific anti-IC assay result” value in assay [10] (listed as Nod5) is “not”. Moreover, the “Specificity of anti-IC antibody” value in [7] is given as “recognize immunocomplexes comprising Nod-R; also recorded: nodularin-R specific”.

B6: SA58A12: XR subgroup-specific anti-IC antibody (antibody, V domains shown)
VH: EVQLLESGGGLVQPGGSLRLSCAASGFTFSNYGMHWVRQAPGKGLEWVSEIWPNNGTTNYADSVKGRFTISRDNSKNTLYLQMNSLRAEDTAVYYCARESGQWWYGVFDYWGQGTLVTVSS
VL: EIVLTQSPGTLSLSPGERATLSCRASQSVSSSNLAWYQQKPGQAPRLLIYGASSRATGVPDRFSGSGSGTDFTLTISRLEPEDFAVYYCQQSSSYPWTFGQGTKVEIKRT
modifications: Clone SA58A12; DOMAIN (31)..(35) CDR1; DOMAIN (50)..(65) CDR2; DOMAIN (98)..(110) CDR3; DOMAIN (24)..(35) CDR1; DOMAIN (51)..(57) CDR2; DOMAIN (90)..(98) CDR3
In the case of B6, the “Specificity (cross-reactive pattern)” value in assay [11] was “specific towards MC-XZ where Z=R (Arg) and also towards Nod-R”. In assay [7], the “Specificity of anti-IC antibody” value is “specific for a subgroup XR”.

B7: SA55D1: MC-LZ subgroup-specific anti-IC binder (antibody, V domains shown)
VH: EVQLLESGGGLVQPGGSLRLSCAASGFTFSSDVMHWVRQAPGKGLEWVSVISPYDGYTRYADSVKGRFTISRDNSKNTLYLQMNSLRAEDTAVYYCARHKGGYRRAYMDYWGQGTLVTVSS
VL: EIVLTQSPGTLSLSPGERATLSCRASQSVSSSALAWYQQKPGQAPRLLIYGASSRATGVPDRFSGSGSGTDFTLTISRLEPEDFAVYYCQQSYSYPWTFGQGTKVEIKRT
modifications: Clone SA55D1; DOMAIN (31)..(35) CDR1; DOMAIN (50)..(66) CDR2; DOMAIN (99)..(110) CDR3; DOMAIN (24)..(35) CDR1; DOMAIN (51)..(57) CDR2; DOMAIN (90)..(98) CDR3
In the case of B7, the “Specificity (cross-reactive pattern)” value in assay [11] is given as “specific towards MC-XZ, where X=L (Leu)”. Besides, in [7], the “Specificity of anti-IC antibody” value is on record as “MC-LZ subgroup-specific”.
